Publication PMC9015690

Target: CXCL12 locked dimer (CXCL12-LD) (UniProt P48061)
Test: ITC

CXCL12 locked dimer (CXCL12-LD), sequence (P48061 22-89 L57C/A86C): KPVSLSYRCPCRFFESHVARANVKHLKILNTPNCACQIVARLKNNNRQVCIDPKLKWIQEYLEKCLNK

B1: ACKR1^N-term, sixty-amino acid peptide corresponding to the extracellular N-terminus of ACKR1 (domain or fragment)
chain: MGNALHRAELSPSTENSSQLDFEDVWNSSYGVNDSFPDGDYGANLEAAAPAHSANLLDDS
  KD of the first transition (sequential binding model): 6 nM
  stoichiometry N: 1
